Laboratory results: publication PMC3014985
Like-named read-outs stand apart in the source and are kept apart here.

Experiments:
Test in all cases: SEC
[1] = target: 6His-TOSV NP (Toscana virus nucleoprotein with N-terminal hexahistidine tag), refolded (Toscana virus (strain AR2005)) (UniProt P21701)
[2] = target: RVFV NP (Rift Valley fever virus nucleoprotein after removal of the TRX-6His tag) (Rift Valley fever virus (strain Smithburn)) (UniProt P21700)
[3] = target: TOSV NP (Toscana virus nucleoprotein after removal of the TRX-6His tag) (Toscana virus (strain AR2005)) (UniProt P21701)
[4] = target: TOSV NP (Toscana virus nucleoprotein after removal of the TRX-6His tag) (Toscana virus (strain AR2005)) (UniProt P21701); remark: listed apart in the source

6His-TOSV NP (Toscana virus nucleoprotein with N-terminal hexahistidine tag), refolded (from UniProt P21701 1-253) (natural protein)
stoichiometry N [1]: 3

RVFV NP (Rift Valley fever virus nucleoprotein after removal of the TRX-6His tag) (from UniProt P21700 1-245) (natural protein)
stoichiometry N [2]: 3

TOSV NP (Toscana virus nucleoprotein after removal of the TRX-6His tag) (from UniProt P21701 1-253) (natural protein)
stoichiometry N [3]: 3
stoichiometry N [4]: 6
